Like-named read-outs stand apart in the source and are kept apart here.
Tests used:
human fibrinogen (human) [1] = target: human fibrinogen (human) (UniProt P02671); assay: bacterial cell adhesion ELISA; wells coated with 1 µg human fibrinogen or fragment D, blocked with 20 mg/mL BSA; 3×10^8 leptospires, 1 h at 30°C; adherent cells fixed with formaldehyde and detected with a rabbit antibody to L. biflexa; increase over wild-type L. biflexa
[2] = target: fibrinogen fragment D (human); assay: as above
Chain of fibrinogen fragment D (human) (P02671 130-216, chain 1 of 3): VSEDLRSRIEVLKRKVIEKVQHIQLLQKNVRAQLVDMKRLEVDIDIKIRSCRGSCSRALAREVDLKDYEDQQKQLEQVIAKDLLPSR
Chain of fibrinogen fragment D (human) (P02675 164-491, chain 2 of 3, further chain): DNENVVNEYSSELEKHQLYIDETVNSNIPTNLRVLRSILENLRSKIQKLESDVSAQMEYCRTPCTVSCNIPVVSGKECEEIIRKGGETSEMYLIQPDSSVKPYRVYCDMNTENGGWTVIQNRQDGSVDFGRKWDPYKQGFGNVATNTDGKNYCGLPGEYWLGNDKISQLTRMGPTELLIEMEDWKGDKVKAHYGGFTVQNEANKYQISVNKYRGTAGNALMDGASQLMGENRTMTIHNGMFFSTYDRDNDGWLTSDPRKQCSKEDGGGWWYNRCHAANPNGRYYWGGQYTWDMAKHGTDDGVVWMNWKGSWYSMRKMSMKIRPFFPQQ
Chain of fibrinogen fragment D (human) (P02679 114-432, chain 3 of 3, further chain): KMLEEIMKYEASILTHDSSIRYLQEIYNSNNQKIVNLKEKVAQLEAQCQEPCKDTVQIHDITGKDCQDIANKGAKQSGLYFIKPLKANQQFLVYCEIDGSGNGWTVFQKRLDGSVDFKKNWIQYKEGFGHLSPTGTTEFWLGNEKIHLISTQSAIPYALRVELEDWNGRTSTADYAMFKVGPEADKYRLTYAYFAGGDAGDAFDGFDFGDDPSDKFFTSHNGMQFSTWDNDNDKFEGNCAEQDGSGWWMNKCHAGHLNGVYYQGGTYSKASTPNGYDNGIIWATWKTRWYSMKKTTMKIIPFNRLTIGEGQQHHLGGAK

human fibrinogen (human) [3] = target: human fibrinogen (human) (UniProt P02671); assay: ELISA; host protein (1 µg per well) immobilised in microtiter wells, blocked with 20 mg/mL BSA; recombinant LigB in 20 mg/mL BSA in PBS pH 7.2, 1 h at 37°C; bound LigB detected by its polyhistidine tag; apparent Kd from the LigB concentration at half-maximal binding
[4] = target: human fibronectin from plasma (human); assay: as above
human fibrinogen (human) [5] = target: human fibrinogen (human) (UniProt P02671)
human fibrinogen (human) [6] = target: human fibrinogen (human) (UniProt P02671); assay: ELISA; host protein (1 µg per well) immobilised in microtiter wells, blocked with 20 mg/mL BSA; recombinant LigB in 20 mg/mL BSA in PBS pH 7.2, 1 h at 37°C; bound LigB detected by its polyhistidine tag; apparent Kd from the LigB concentration at half-maximal binding; remark: listed apart in the source
[7] = target: human fibronectin from fibroblasts (human); assay: as above
[8] = target: human fibronectin from plasma (human); assay: as above; remark: listed apart in the source
[9] = target: human type III collagen (human) (UniProt P02461); assay: as above
Chain of human type III collagen (human) (P02461 154-1221): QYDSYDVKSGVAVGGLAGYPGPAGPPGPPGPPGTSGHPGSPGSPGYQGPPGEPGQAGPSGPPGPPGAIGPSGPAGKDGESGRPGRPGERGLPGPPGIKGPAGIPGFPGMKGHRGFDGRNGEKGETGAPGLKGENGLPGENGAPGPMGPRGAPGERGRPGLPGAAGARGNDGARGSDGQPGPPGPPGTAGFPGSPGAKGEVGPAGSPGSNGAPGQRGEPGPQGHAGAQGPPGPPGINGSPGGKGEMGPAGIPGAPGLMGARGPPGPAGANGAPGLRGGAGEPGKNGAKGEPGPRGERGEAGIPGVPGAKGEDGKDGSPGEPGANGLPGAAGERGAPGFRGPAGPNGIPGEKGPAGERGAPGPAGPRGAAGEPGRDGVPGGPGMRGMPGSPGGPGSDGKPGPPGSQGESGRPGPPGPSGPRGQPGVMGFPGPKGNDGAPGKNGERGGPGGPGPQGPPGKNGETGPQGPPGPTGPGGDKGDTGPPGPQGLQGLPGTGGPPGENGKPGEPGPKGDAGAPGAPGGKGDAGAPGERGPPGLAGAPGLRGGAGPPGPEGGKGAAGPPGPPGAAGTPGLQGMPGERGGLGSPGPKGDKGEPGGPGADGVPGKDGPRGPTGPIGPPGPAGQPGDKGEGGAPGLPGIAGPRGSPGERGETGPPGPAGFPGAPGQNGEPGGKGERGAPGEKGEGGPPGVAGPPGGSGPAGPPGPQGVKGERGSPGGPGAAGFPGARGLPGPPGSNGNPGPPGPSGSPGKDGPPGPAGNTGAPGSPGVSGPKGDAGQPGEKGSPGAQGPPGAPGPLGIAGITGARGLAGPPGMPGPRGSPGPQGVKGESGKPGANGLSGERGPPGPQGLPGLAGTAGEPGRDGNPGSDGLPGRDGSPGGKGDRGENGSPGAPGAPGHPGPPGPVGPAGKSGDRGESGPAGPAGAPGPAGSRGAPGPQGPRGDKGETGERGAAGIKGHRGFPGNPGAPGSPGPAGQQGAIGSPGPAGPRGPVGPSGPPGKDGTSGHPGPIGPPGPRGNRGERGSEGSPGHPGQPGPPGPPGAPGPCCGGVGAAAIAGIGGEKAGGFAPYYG

human fibrinogen (human) [10] = target: human fibrinogen (human) (UniProt P02671); assay: ELISA; data not shown; LigB proteins on immobilised fibronectin, its 70-kDa N-terminal fragment or fibrinogen
[11] = target: human fibronectin from plasma (human); assay: as above

Chain of human fibrinogen (human) (P02671 20-866, chain 1 of 3): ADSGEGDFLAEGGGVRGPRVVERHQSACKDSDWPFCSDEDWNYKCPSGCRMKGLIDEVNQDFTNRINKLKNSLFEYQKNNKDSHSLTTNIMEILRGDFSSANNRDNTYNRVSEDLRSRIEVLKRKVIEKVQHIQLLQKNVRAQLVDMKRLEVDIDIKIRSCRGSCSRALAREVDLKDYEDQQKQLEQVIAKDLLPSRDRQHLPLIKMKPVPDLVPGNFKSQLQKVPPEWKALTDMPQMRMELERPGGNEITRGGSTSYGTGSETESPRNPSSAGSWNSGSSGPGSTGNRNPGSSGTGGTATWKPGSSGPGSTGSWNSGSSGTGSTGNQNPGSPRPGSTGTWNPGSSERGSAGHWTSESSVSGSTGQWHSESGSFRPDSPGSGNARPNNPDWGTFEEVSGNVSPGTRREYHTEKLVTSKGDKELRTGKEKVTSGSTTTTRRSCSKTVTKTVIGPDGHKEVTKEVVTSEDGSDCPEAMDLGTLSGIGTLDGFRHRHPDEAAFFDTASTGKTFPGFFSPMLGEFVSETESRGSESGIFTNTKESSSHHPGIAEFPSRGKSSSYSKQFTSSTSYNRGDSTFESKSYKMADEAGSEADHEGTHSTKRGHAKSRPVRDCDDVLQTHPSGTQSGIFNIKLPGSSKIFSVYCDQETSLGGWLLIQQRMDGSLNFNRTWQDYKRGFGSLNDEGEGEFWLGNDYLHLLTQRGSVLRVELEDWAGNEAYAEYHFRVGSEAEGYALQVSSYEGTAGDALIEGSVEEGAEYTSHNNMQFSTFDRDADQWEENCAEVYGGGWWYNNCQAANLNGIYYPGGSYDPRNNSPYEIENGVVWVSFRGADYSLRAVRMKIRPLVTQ
Chain of human fibrinogen (human) (P02675 31-491, chain 2 of 3, further chain): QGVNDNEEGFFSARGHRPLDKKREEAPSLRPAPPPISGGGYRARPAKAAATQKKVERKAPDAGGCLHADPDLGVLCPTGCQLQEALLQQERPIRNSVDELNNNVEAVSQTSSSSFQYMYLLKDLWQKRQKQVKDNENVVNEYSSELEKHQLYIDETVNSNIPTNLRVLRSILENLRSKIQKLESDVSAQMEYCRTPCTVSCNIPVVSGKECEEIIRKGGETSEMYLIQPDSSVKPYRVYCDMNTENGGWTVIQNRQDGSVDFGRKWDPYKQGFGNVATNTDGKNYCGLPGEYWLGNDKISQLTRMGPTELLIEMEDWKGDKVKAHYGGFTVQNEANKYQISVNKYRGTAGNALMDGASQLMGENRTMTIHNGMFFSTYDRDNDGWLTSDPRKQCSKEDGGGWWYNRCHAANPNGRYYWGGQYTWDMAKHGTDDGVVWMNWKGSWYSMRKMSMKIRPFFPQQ
Chain of human fibrinogen (human) (P02679 27-453, chain 3 of 3, further chain): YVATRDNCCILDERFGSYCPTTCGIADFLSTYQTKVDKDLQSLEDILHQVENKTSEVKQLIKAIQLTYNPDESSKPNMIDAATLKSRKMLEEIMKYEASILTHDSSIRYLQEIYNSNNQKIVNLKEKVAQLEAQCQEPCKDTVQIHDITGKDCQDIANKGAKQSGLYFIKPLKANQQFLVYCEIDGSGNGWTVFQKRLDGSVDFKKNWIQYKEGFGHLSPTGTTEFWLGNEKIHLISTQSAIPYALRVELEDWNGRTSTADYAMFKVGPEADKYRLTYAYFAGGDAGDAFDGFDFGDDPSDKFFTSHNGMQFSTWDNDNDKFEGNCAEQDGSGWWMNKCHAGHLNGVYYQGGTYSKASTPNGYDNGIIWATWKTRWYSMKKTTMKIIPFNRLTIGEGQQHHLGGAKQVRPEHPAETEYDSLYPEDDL

Substance | Kd (human fibrinogen (human) [3]) | Kd [4] | also measured
LigA from L. interrogans expressed on L. biflexa (ligA transformant) (natural protein) | – | – | percent increase of adhesion over wild-type L. biflexa (human fibrinogen (human) [1]): 55%; percent increase of adhesion over wild-type L. biflexa (representative experiment) (human fibrinogen (human) [1]): 56%; percent increase of adhesion over wild-type L. biflexa [2]: 58%
LigB7′-10 (domain or fragment) | 0.207 µM | 0.077 µM | –
LigB7′-11 (domain or fragment) | 0.063 µM | 0.027 µM | –
LigB7′-12 (domain or fragment) | 0.034 µM | 0.023 µM | –
LigB8-12 (domain or fragment) | – | 0.026 µM | –
LigB9-10 (domain or fragment) | 0.169 µM | 0.252 µM | –
LigB9-11 (domain or fragment) | 0.027 µM | 0.031 µM | decrease of thrombin-catalysed fibrin formation from purified fibrinogen (3 µM fibrinogen preincubated with 5 µM LigB9-11; three determinations, 22 to 43%) (human fibrinogen (human) [5]): 29%; Kd (human fibrinogen (human) [6]): 0.028 µM; Kd [7]: 0.025 µM; Kd [8]: 0.032 µM; Kd [9]: 0.03 µM
LigB9-11 with N-terminal H6 (cloned in pET-14b) (domain or fragment) | – | – | residual fibrinogen-binding activity relative to LigB9-11 (human fibrinogen (human) [10]): < 10%
LigB9-11′ (domain or fragment) | – | – | percent decrease of fibrinogen-binding activity relative to LigB9-11 (human fibrinogen (human) [10]): 50%; percent decrease of fibronectin-binding activity relative to LigB9-11 [11]: 80%
LigB9-12 (domain or fragment) | 0.037 µM | 0.022 µM | –
LigB from L. interrogans expressed on L. biflexa (ligB transformant) (natural protein) | – | – | percent increase of adhesion over wild-type L. biflexa (human fibrinogen (human) [1]): 55%; percent increase of adhesion over wild-type L. biflexa (representative experiment) (human fibrinogen (human) [1]): 37%

Source: paper PMC3036719
